Experimental data taken from patent US6391302 (LUDWIG INSTITUTE FOR CANCER RESEARCH, dated 2002).
Where a chain is given by its changes, count along the chain named. Blank lines part the entries; values can stand above or below the molecule they belong to.

Molecular target: T1, human FB5 (endosialin) cancer antigen (human, UniProt Q9HCU0 18-757)
T1 construct: whole, on cells; The antigen is presented on LA1-5s cells; also called FB5 antigen
T1 sequence (looked up): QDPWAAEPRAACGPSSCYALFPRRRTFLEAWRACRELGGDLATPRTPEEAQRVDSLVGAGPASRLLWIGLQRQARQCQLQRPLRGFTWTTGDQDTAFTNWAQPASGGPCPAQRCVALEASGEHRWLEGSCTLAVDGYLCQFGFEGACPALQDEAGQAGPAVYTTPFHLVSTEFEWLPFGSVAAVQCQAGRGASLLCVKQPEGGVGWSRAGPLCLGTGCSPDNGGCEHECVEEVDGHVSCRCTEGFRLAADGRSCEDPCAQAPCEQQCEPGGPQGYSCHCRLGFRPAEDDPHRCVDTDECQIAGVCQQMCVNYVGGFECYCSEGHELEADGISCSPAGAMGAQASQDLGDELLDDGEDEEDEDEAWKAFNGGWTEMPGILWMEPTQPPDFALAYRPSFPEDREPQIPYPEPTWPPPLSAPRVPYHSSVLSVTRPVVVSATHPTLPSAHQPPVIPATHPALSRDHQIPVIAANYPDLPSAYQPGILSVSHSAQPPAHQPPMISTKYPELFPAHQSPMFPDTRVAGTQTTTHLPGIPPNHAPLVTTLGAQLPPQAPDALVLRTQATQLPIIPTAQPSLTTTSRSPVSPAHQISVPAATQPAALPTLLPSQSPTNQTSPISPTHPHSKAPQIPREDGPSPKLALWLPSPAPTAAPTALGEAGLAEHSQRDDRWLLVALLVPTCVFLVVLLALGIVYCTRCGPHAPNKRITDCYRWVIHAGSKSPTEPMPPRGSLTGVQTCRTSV
Test: mixed hemadsorption (MHA) rosetting assay on LA1-5s human neuroblastoma cells, protein A-conjugated red blood cells as indicator

B1: FB5HuVHK/HuVK (antibody, V domains shown)
VH: QVQLQESGPGLVRPSQTLSLTCTASGYTFTDYVIHWVKQPPGRGLEWIGYINPYDDDTTYNQKFKGRVTMLVDTSSNTAYLRLSSVTAEDTAVYYCARRGNSYDGYFDYSMDYWGQGSLVTVSS
VL: DIQMTQSPSSLSASVGDRVTITCRASQNVGTAVAWLQQTPGKAPKLLIYSASNRYTGVPSRFSGSGSGTDYTFTISSLQPEDIATYYCQQYTNYPMYTFGQGTKVQIK
- Concentration of antibody for 50% rosetting: 16 ng/mL

B2: FB5HuVHK,QA,LT,VK/HuVK (antibody, V domains shown)
VH: B1 VH with R67Q, V68A, M70L, L71T, D73V, T74K
VL: B1 VL
- Concentration of antibody for 50% rosetting: 16 ng/mL

B3: FB5HuVH/HuVK (antibody, V domains shown)
VH: B1 VH with K38R
VL: B1 VL
notes: also called reshaped antibody FB5HuVH/HuVK
- Concentration of antibody for 50% rosetting: 80 ng/mL

Second part, the molecule after the results:

- Concentration of antibody for 50% rosetting: 3 ng/mL
Molecule: murine monoclonal antibody mAbFB5

- Concentration of antibody for 50% rosetting: 3 ng/mL
Molecule: chimeric FB5 antibody
